We go through three molecules from US20210301349A1, “COMPOSITIONS AND METHODS FOR TREATING A TUMOR SUPPRESSOR DEFICIENT CANCER” (BETH ISRAEL DEACONESS MEDICAL CENTER, INC., priority 2016, published 2021).

One assay deals with prostate cancer. To be noted: phase III clinical trial in prostate cancer; cited from earlier work.
Assay [1] deals with monocytes isolated from the bone marrow of healthy mice. As to the kind of experiment: Transwell migration assay with recombinant proteins, monocytes. To be noted: increasing concentration of recombinant protein in bottom well. The assay is classed as cell-based, mouse. The text has this:
(§1) Gr1+ cells and monocytes were isolated from the bone marrow (tibias and femurs) of C57BL/6 wild type, 3 months old mice using the MACS Myltenyi Biotec Cell Isolation system according to the manufacturer's instruction. For monocytes isolation the Monocyte Isolation Kit (BM) (Miltenyi 130-100-629) was used, whereas Gr1 positive cells were isolated using the antibody Anti-Gr-1-Biotin, clone RB6-8C5 (Miltenyi 130-101-894). Red blood cells were lysed with the ACK lysis buffer (ThermoFisher Scientific A1049201). Total bone marrow cells and Gr1+ cells were cultured for 4 days. Briefly, 40 ng/ml GM-CSF (PeproTech #315-03) and 40 ng/ml IL-6 (PeproTech #216-16) were added to the control medium RPMI 1640 (ThermoFisher Scientific 11875-093), supplemented with penicillin-streptomycin, 10% FBS, 10 mM HEPES, 20 μM 2-Mercaptoethanol. Either recombinant mouse CXCL5 (BioLegend #573302) or recombinant mouse CXCL17 (BioLegend #585402) was added at the beginning of the experiment (200 nM). For the migration assay 2.5×10^5 MACS sorted cells were resuspended in 100 μL of either RPMI 1640 control medium or organoid complete medium and placed on the upper well of the transwell system (5 μm, Corning #160241). […] The migration of cells was quantified by flow cytometry, 15 seconds acquisition time, using BD LSR II flow cytometer.

The test system of assay [2] is whole bone marrow (BM) mouse cells and Gr1+ cells. As to the kind of experiment: 4 day culture of bone marrow and Gr1+ cells in GM-CSF, IL-6 medium plus recombinant chemokine. The assay is classed as cell-based. To be noted: 4 days culture with IL6 and GM-CSF, recombinant chemokine 200 nM. An excerpt: Gr1+ cells and monocytes were isolated from the bone marrow (tibias and femurs) of C57BL/6 wild type, 3 months old mice using the MACS Myltenyi Biotec Cell Isolation system according to the manufacturer's instruction. For monocytes isolation the Monocyte Isolation Kit (BM) (Miltenyi 130-100-629) was used, whereas Gr1 positive cells were isolated using the antibody Anti-Gr-1-Biotin, clone RB6-8C5 (Miltenyi 130-101-894). Red blood cells were lysed with the ACK lysis buffer (ThermoFisher Scientific A1049201). Total bone marrow cells and Gr1+ cells were cultured for 4 days. Briefly, 40 ng/ml GM-CSF (PeproTech #315-03) and 40 ng/ml IL-6 (PeproTech #216-16) were added to the control medium RPMI 1640 (ThermoFisher Scientific 11875-093), supplemented with penicillin-streptomycin, 10% FBS, 10 mM HEPES, 20 μM 2-Mercaptoethanol. Either recombinant mouse CXCL5 (BioLegend #573302) or recombinant mouse CXCL17 (BioLegend #585402) was added at the beginning of the experiment (200 nM). For the migration assay 2.5×10^5 MACS sorted cells were resuspended in 100 μL of either RPMI 1640 control medium or organoid complete medium and placed on the upper well of the transwell system (5 μm, Corning #160241). The migration assay with recombinant proteins was performed by adding to the bottom well 600 μL of RMPI1640 control medium supplemented with the indicated amount of either CXCL5 or CXCL17. The migration assay with organoid conditioned medium was performed by adding to the bottom well 600 μL of medium collected over 5 days of culture of prostate organoids with the indicated genotype. The migration of cells was quantified by flow cytometry, 15 seconds acquisition time, using BD LSR II flow cytometer.
For Flow Cytometry, spleen and lymph node single cell suspensions were prepared by mashing the tissue in 2% FBS/PBS. Tumor and control prostate tissue (from anterior lobes) single cell suspension was prepared by mincing the tumor and digestion with Collagenase Type I (Life Technologies #17018029) in 10% DMEM (GIBCO) for 1 hr at 37° C. Cell suspensions were passed through […] cell strainers to obtain single cell suspensions. Blood samples and single cell suspensions were re-suspended in 1-2 ml of ACK red cell lysis buffer (GIBCO) and lysed on ice for 1 minute. Cell suspensions were then washed in 2% FBS/PBS, centrifuged and re-suspended in 0.5-1 ml of 2% FBS/PBS. […] All staining mixtures were analyzed on a BD LSR II flow cytometer (Becton Dickinson). Resulting profiles were further processed and analyzed using the FlowJo 8.7 software.
Microarray analysis and gene set enrichment analysis on mouse tumor tissue were conducted and analyzed as previously described by Palucka, A. K. et al. (Palucka, A. K. et al. Cell 164, 1233-1247 (2016)). […]

Assay [3] concerns Gr1+ cells isolated from the bone marrow of healthy mice. In words: Transwell migration assay with recombinant proteins, Gr1+ cells. The assay is classed as cell-based, mouse. Particulars: increasing concentration of recombinant protein in bottom well.
From the text: as §1

For `COc1cccc2c1c(O)c(C(=O)N(C)c1ccc(C(F)(F)F)cc1)c(=O)n2C` [Tasquinimod], the survival benefit result in the assay with prostate cancer was “failed to show a clear survival benefit”.

B1: CXCL17: recombinant mouse CXCL17 (BioLegend #585402), chemokine (protein, UniProt Q5UW37 23-119, looked up)
C-X-C motif chemokine 17: SPNPGVARSHGDQHLAPRRWLLEGGQECECKDWFLQAPKRKATAVLGPPRKQCPCDHVKGREKKNRHQKHHRKSQRPSRACQQFLKRCHLASFALPL
As to B1, the “migration of monocytes (Ly6G−/Ly6C^hi cells)” value in assay [1] is listed as “chemoattractants”. In addition, the “expression of the Ly6C and Ly6G markers and expression profile of the genes tested” value is “did not observe any significant difference” in assay [2] and “did not show significant changes” in assay [2] (listed as recombinant CXCL17).

B2: CXCL5: recombinant mouse CXCL5 (BioLegend #573302), chemokine (protein, UniProt P50228 41-132, looked up)
C-X-C motif chemokine 5: APSSVIAATELRCVCLTVTPKINPKLIANLEVIPAGPQCPTVEVIAKLKNQKEVCLDPEAPVIKKIIQKILGSDKKKAKRNALAVERTASVQ
For the molecule B2, in assay [3], the “migration of Gr1+ cells” value is given as “strongly induced the migration”. Further, the figures for the “expression of the Ly6C and Ly6G markers and expression profile of the genes tested” value in assay [2] and in assay [2] (listed as recombinant CXCL5) were “did not observe any significant difference” and “did not show significant changes”, respectively.
